Laboratory results from PMC6039445 (Nature Communications, 2018).

Experiments:
[1] = molecular target: HA of the Beijing 1989 strain (A/Beijing/353/1989 H3N2), soluble, biotinylated (Influenza A virus A/Beijing/353/1989 …, UniProt O11283, strain, biotin (site not stated)); assay: BLI; details: both partners purified
[2] = molecular target: HA of the Shandong 1993 strain (A/Shandong/9/1993 H3N2), soluble, biotinylated (Influenza A virus A/Shandong/9/1993 …, UniProt H9XM74, strain, biotin (site not stated)); assay: BLI; details: both partners purified

B1: H3v-47 Fab (Fab, V domains shown)
VH: QVQLVQSGAEVKKPGSSVRVSCKASGDTFSSYSITWVRQAPGHGLQWMGGIFPIFGSTNYAQKFDDRLTITTDDSSRTVYMELTSLRLEDTAVYYCARGASKVEPAAPAYSDAFDMWGQGTLVTVSS
VL: DIVMTQSPGTLSLSPGERATLSCRTSQGVSSSYLAWYQQKPGQAPRLLISGSSSRATGIPDRFSGSGSGRDFTLTISRLEPEDSAVYYCQQYATSPTFGQGTRVEIK
- binding result [1]: binds
- binding result [2]: binds

B2: H3v-47 IgG (antibody, V domains shown)
VH: B1 VH
VL: B1 VL
notes: also called mAb H3v-47; source: human hybridoma cell line, serum-free medium, purified (protein G); copies: 2 + 2
- binding result [1]: binds
- binding result [2]: binds
